Data from paper PMC6168263 (The Journal of Cell Biology, 2018).

B1: C-Bud6 (550-788) (domain or fragment, S. cerevisiae, UniProt P41697 550-788, looked up)
chain: AKNSSNRMYMEKSQTELGDLSDTLLSKVDDLQDVIEIMRKDVAERRSQPAKKKLETVSKDLENAQADVLKLQEFIDTEKPHWKKTWEAELDKVCEEQQFLTLQEELILDLKEDLGKALETFDLIKLCCEEQEKNPSRSKSNPILPIMRPGTFNQVREQVMVAVQSLNPDHDSRVEAIDKAEKMWEMERKLKASNEFDDELENFVGNSNLKKSGGFEEVERIRKQKDEANLRAYFGPGFT
B2: 6His-Bnr1 FH2 (868-1,291) (domain or fragment, S. cerevisiae, UniProt P40450 868-1291, looked up)
chain: DLKPPPTEKRLKQIHWDKVEDIKDTLWEDTFQRQETIKELQTDGIFSQIEDIFKMKSPTKIANKRNAESSIALSSNNGKSSNELKKISFLSRDLAQQFGINLHMFSQLSDMEFVMKVLNCDNDIVQNVNILKFFCKEELVNIPKSMLNKYEPYSQGKDGKAVSDLQRADRIFLELCINLRFYWNARSKSLLTLSTYERDYYDLIFKLQKIDDAISHLNRSPKFKSLMFIITEIGNHMNKRIVKGIKLKSLTKLAFVRSSIDQNVSFLHFIEKVIRIKYPDIYGFVDDLKNIEDLGKISLEHVESECHEFHKKIEDLVTQFQVGKLSKEENLDPRDQIIKKVKFKINRAKTKSELLIGQCKLTLIDLNKLMKYYGEDPKDKESKNEFFQPFIEFLAMFKKCAKENIEKEEMERVYEQRKSLLDMR
B3: MBP-Hof1-FL-6His (natural protein, S. cerevisiae, UniProt Q05080 1-669, looked up)
chain: MSYSYEACFWDPNDNGVNILLGHISQGIRSCDSMILFFKQRSELEKDYARRLGAITGKLDKDIGTNMDYGKLNETFNVVLSVEKARAQSHSKQSEILFRQIYTDTKAFAANLQARYTTLSGKIERLRMDKFNKKKGCEVLQKKLQDAQIRFRDLQLNENNMIGAKRVEHNKRELLKWESNSQEYKVQLDVLKQEYKASQKFWIHEWAQLSCELQEMENARISFLQSKLQQFATSSMETYILEQTKMDMLTNHLNSFTAADEISTFSKENGTGRLKHKTSKGDMNSSANWAQMSSISTTSKKTESYMDNIRKLSSQLKETENKRKLASIDKYEKPLPSPEVTMATQFRNSTPVIRNETKVVANPTLSLRSSPVQLQSNVDDSVLRQKPDKPRPIVGEEQLKPDEDSKNPDEKGLMVHKRNQSLSSPSESSSSNPTDFSHIKKRQSMESMTTSVSSMANSIDDSQRFAKSWNSSNRKRKSMSHLQVPSSASSRSDDGGRTPNSAHNLNEDDYNTRRDTSTSTILFKPPVAVRGTSRGHTHRQSMIMQDSSNPIEDALYEMERIQSSSKPGTKTGNIMDERGVVRDRGITVTLPIVTSEGFPVIEYAKAMYPLIGNEAPGLANFHKGDYLLITEIVNKDWYKGEVYDNDRIDRNHRIGLIPYNFIQLLHQGL
B4: MBP-Hof1 F-BAR (1-275) (domain or fragment, S. cerevisiae, UniProt Q05080 1-275, looked up)
chain: MSYSYEACFWDPNDNGVNILLGHISQGIRSCDSMILFFKQRSELEKDYARRLGAITGKLDKDIGTNMDYGKLNETFNVVLSVEKARAQSHSKQSEILFRQIYTDTKAFAANLQARYTTLSGKIERLRMDKFNKKKGCEVLQKKLQDAQIRFRDLQLNENNMIGAKRVEHNKRELLKWESNSQEYKVQLDVLKQEYKASQKFWIHEWAQLSCELQEMENARISFLQSKLQQFATSSMETYILEQTKMDMLTNHLNSFTAADEISTFSKENGTGRLK
B5: MBP-Hof1-NT-SNAP-549 (domain or fragment, S. cerevisiae, UniProt Q05080 1-340, looked up)
chain: MSYSYEACFWDPNDNGVNILLGHISQGIRSCDSMILFFKQRSELEKDYARRLGAITGKLDKDIGTNMDYGKLNETFNVVLSVEKARAQSHSKQSEILFRQIYTDTKAFAANLQARYTTLSGKIERLRMDKFNKKKGCEVLQKKLQDAQIRFRDLQLNENNMIGAKRVEHNKRELLKWESNSQEYKVQLDVLKQEYKASQKFWIHEWAQLSCELQEMENARISFLQSKLQQFATSSMETYILEQTKMDMLTNHLNSFTAADEISTFSKENGTGRLKHKTSKGDMNSSANWAQMSSISTTSKKTESYMDNIRKLSSQLKETENKRKLASIDKYEKPLPSPEV
modifications: BG-549 SNAP dye on the SNAP tag

Experiments:
649-biotin-SNAP-C-Bnr1 = 649-biotin-SNAP-C-Bnr1 (S. cerevisiae, UniProt P40450 757-1375, BG-649-PEG-Biotin on the SNAP tag); experiment: TIRF microscopy of labelled protein on formin-coated beads
[1] = molecular target: the molecule itself; experiment: negative-stain single-particle EM
[2] = molecular target: 6His-Bnr1 FH1-FH2-C (residues 757-1,375) (S. cerevisiae, UniProt P40450 757-1375); experiment: negative-stain single-particle EM
[3] = molecular target: B2; experiment: negative-stain single-particle EM

Sequence of 649-biotin-SNAP-C-Bnr1 (P40450 757-1375): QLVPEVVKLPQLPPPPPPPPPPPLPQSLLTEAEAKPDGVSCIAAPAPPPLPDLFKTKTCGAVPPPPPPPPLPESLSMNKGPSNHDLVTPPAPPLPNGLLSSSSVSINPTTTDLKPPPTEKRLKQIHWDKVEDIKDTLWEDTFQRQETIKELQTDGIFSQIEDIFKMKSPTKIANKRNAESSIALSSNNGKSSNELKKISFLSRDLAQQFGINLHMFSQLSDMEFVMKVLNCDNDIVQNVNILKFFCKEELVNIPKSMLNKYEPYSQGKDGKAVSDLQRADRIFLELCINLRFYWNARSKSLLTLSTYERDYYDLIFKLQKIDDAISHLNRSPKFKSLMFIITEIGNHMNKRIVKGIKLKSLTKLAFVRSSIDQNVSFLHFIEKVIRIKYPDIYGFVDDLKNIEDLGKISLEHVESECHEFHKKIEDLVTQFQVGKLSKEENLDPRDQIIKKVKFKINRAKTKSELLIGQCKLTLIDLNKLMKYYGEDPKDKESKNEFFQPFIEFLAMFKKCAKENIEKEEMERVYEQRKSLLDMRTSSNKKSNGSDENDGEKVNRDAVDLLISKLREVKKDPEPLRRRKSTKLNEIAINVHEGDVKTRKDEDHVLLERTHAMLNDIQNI
Sequence of 6His-Bnr1 FH1-FH2-C (residues 757-1,375) (P40450 757-1375): as above

Binder: B1
binding result (649-biotin-SNAP-C-Bnr1): binds

Binder: B2
stoichiometry N [1]: 2

Binder: B3
stoichiometry N [2]: 2 C-Bnr1 dimers per Hof1-FL dimer

Binder: B4
stoichiometry N [3]: 2 Bnr1 FH2 domains per Hof1 F-BAR domain

Binder: B5
binding result (649-biotin-SNAP-C-Bnr1): binds
